Measurements taken from article PMC4645341 (Journal of Virology, 2015).
Where no end group is shown, it is not given here.

Legend:
[1] = molecular target: MPER-TM1 (HIV-1 (strain not stated)); experiment: ELISA
[2] = molecular target: 4E10 WT Fab; experiment: SPR
[3] = molecular target: Recombinant gp41 (r-gp41; HIV-1MN isolate) (HIV-1 isolate MN, UniProt P05877); experiment: ELISA
Chain of Recombinant gp41 (r-gp41; HIV-1MN isolate) (P05877 whole entry, looked up): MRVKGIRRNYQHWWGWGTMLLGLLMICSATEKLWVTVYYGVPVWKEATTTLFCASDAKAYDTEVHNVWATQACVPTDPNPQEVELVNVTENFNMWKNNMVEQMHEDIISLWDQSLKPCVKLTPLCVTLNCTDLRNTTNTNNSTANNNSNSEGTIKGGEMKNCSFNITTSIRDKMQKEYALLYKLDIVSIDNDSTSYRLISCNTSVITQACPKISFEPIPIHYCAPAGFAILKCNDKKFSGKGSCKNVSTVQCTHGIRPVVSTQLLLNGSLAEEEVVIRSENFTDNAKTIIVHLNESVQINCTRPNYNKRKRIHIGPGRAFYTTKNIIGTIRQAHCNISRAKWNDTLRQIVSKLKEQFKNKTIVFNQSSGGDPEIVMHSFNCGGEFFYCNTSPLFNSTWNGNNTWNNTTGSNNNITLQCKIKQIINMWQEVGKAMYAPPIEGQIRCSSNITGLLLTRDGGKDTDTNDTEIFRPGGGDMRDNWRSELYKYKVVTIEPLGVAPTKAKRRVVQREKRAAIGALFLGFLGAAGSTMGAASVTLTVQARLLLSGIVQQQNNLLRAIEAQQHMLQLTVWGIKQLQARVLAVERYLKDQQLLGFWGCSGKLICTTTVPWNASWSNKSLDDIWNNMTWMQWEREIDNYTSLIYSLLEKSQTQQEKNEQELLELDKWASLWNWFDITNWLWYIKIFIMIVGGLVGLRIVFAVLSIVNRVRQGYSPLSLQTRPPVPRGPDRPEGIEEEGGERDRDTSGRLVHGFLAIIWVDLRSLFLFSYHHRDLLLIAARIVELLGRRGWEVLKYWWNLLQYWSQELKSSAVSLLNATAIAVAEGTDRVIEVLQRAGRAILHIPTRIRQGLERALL

4E10 WT Fab showed an EC50 [1] of 1 nM.

4E10 IgG1 MAb (antibody) was tested, and the EC50 [1] was 0.1 nM.

Work on NWFDITNWLWYIRRRR-NH2 [4E10ep variant (…-RRR)] yielded a Kd [2] of 21 nM, a dH (van't Hoff) [2] of -11.5 kcal/mol and a koff [2] of 0.0011 s⁻¹.

B1: 4E10 WDWD Fab (Fab, V domains shown)
VH: VQLVQSGAEVKRPGSSVTVSCKASGGSFSTYALSWVRQAPGRGLEWMGGVIPLLTITNYAPRFQGRITITADRSTSTAYLELNSLRPEDTAVYYCAREGTTGDGDLGKPIGAFAHWGQGTLVTVSS
VL: EIVLTQSPGTQSLSPGERATLSCRASQSVGNNKLAWYQQRPGQAPRLLIYGASSRPSGVADRFSGSGSGTDFTLTISRLEPEDFAVYYCQQYGQSLSTFGQGTKVEVK
B1: binds [3].
